Experimental data as given in paper PMC4324299, “Characterization of interactions between inclusion membrane proteins from Chlamydia trachomatis” (Frontiers in Cellular and Infection Microbiology, 2015).

B1: Ct850 (natural protein)
chain: MGFGTVRGKGKAVKSFFLRPLQNLEVGLFSLPIVLLLGEIGCVSSISSVSLVAVLSIVGVFVALVSFFRSWGYGLSVVGAIFFGLALCNNFPVSVFWGGLLTVSFIISYGILLLSVSLVEGHIKEKAVSLSELTASHNSLQDSYNREVQERKEKELLAQSKITALEQELSVSHEQLQEVSRKYTHASEDLQILIDQRDSWLKDYMTLHQEYVRVVAGDEENVIFPWKVFQGNSEKDSGYQQRVQDAEHKIAHLEKLCEEENSGKRYAEECLDKALADLLESTRLREILEKEIFQKDEEIASLKQEIAAEKLLSSSVSDDRAAYKGKYLQLREQFTVKDSFLKKARRERFLAQEQLLVLKRAKEEEASNLSTTDSFSIIQNLLLQIEALEEEVTYLEELVLHNQNR
notes: Ct850, putative inclusion membrane protein of C. trachomatis; source: bacterial two-hybrid (BACTH) fusion, co-expressed in E. coli DHT1; not shown: T25 (as bait) or T18 (as prey) fragment of B. pertussis adenylate cyclase, N-terminal, kept
B2: Ct222 (natural protein)
chain: MRCCCVRTNYEEVRSSSTGDQVVSAVKERKCDSSLCRKIASVAFTLIGALLLGIGMVLSFALLGSSAGLIGVGVILSALGAVCLSLGLCKLFLRMKRVSLDKAEQKMLEDQVELLRQENQELKALVYSN
notes: Ct222, putative inclusion membrane protein of C. trachomatis; also called Ct222 FL; source: bacterial two-hybrid (BACTH) fusion, co-expressed in E. coli DHT1; not shown: T25 (as bait) or T18 (as prey) fragment of B. pertussis adenylate cyclase, N-terminal, kept

Assays:
Assay in all cases: two-hybrid
Ct222 = target: B2; details: partners not purified
two-hybrid = target: the molecule itself
Ct850 = target: B1; details: partners not purified

B1
β-galactosidase activity (Ct222): 151 relative units (RU)

B2
β-galactosidase activity (two-hybrid): 317 relative units (RU) | β-galactosidase activity (Ct850): 92 relative units (RU)
